Laboratory results published in patent US20200283507A1 (US Dept. of Health and Human Services, published 2020).

T1: Hu/NoV/GI.1/Norwalk/1968/U.S. VLP (human norovirus GI.1, UniProt Q83884 1-530 (Norovirus (strain entry), limits assumed))
T1 construct: mature; full-length VP1 (ORF2) assembled as virus-like particle in baculovirus/Sf9; also called Norwalk VLP; NV
T1 sequence (looked up): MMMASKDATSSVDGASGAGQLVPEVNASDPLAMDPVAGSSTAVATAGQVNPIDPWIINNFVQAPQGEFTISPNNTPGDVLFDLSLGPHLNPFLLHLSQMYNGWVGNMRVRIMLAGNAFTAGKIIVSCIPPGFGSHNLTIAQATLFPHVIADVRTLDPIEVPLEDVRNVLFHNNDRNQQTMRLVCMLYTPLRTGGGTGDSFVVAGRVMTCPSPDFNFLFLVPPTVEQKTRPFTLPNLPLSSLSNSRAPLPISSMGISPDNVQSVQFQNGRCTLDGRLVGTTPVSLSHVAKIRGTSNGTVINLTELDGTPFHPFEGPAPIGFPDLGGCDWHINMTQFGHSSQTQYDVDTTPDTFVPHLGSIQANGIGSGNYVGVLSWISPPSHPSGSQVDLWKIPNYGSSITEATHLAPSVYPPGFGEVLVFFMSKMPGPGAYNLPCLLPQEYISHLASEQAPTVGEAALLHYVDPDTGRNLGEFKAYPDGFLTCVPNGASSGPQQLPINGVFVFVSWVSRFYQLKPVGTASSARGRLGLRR

B1: VHH 11.2 (VHH)
VHH: DVQLQASGGGLVQAGGSLRLSCAASTSRFSSYAMGWSRQAPGKQRELVASISSSGLTTNYADSVKGRFTISRDNAKNTVYLQMNSLKPEDTAVYYCKADGRRYSLNEYWGQGTQVTVSS
notes: llama VHH, Norwalk library; pHEN6, C-terminal His6 tag; also called VHH 11.1
B2: VHH 9.8 (VHH)
VHH: QVKLQQSGGGLVQAGGSLRLSCAASGTFSRYAMGWFRQAPGKEREFVAAINWTGGSTYYADSVKGRFTISGDNAKNTVYLQMNSLKPGDTAVYYCAAEVHPGDYGLTYMQSQYEYDYWGQGTQVTVSS
notes: llama VHH, Norwalk library; His6 tag
B3: VHH 2.1 (VHH)
VHH: QVQLQESGGGLVQAGGSLRLSCAASGLTFSSYAMGWFHQAPGKEREFVAAINWSGRDTYYADSVKGRFTISRDNRKNTVYLQMNSLKPEDTAVYYCAAAEFFSSGDPLPGMDYWGKGTLVTVSS
notes: llama VHH, MD2004 library; pHEN6, C-terminal His6 tag; also called clone 2.1
B4: VHH 3.2 (VHH)
VHH: QVQLQESGGGLVQPGGSLRLSCAASESTPSINTMGWYRQAPGKERELVATITSGGMTNYADSVKGRFTISRDNGKNTVYLQMNSLEPGDTAVYYCNLKRRDLQARFGGYWGQGTQVTVSS
notes: llama VHH, MD2004 library; pHEN6, C-terminal His6 tag; also called clone 3.2
B5: VHH 8.1 (VHH)
VHH: QVKLQESGGGLVQAGGSLRLSCAASGFTFATYAMAWYRQAPGKQRELVASISNFGSTAYGDSVKGRFTISRDNAKNTVYLEMNSLKSEDTAVYYCKRVRDVIGRPELWGQGTQVTVSS
notes: llama VHH, Norwalk library; pHEN6, C-terminal His6 tag
B6: VHH 14.5 (VHH)
VHH: DVQLQASGGGLVQAGGSLRLSCVASARTFSSYAMGWFRQAPGKEREFVAAISWSGASTDYADSVKGRFTISRDNAKKTVYLQMNTLKPEDTAVYYCAAHHITPTGSYYYSEPLPVDMVYDYWGQGTQVTVSS
notes: as for B5
B7: VHH 19 (VHH)
VHH: QVKLQQSGGGLVQPGGSLRLSCAASGFTFRNYAMSWVRQAPGKGLEWVSAIAAGGAVTKYADSVKGRFTISRDNARDTLYLQMNSLKPEDTAVYYCAKPRDFWYSPEFDFRGQGTQVTVSS
notes: MD2004 library, subtractive biopanning; His6 tag; also called 19.1; clone 19
B8: VHH 16 (VHH)
VHH: QVKLQQSGGGLVQPGGSLRLTCAASGFPFSTYAIRWVRRPPGKGLEWVSTIHPDFTTNYADSVSRRFTISRDNAKNTVYLQMNSLKPEDTAVYYCSRGVSGERGQGTQVTVSS
notes: MD2004 library, subtractive biopanning; His6 tag; also called 16.1; clone 16
B9: VHH 1 (VHH)
VHH: QVQLQQSGGGLVQAGGSLRLSCAASGLAFSSYAITWLRQAPGTEREFVALISGSGSSTYYADSVKGRFTISRNNAKNTVYLQMNSLKPEDTAVYYCTASEFLLHPPPPNQKYDYWGQGTQVTVSS
notes: llama VHH, MD2004 (GII.4) library; pHEN6, C-terminal His6 tag; also called 1.1; clone 1
B10: VHH 12.2 (VHH)
VHH: DVQLQASGGGLVQAGGSLRLSCAASGSTISSYAMAWYRQAPGKRRELVAHISSGGSTNYADSVKGRFTISRDNAKNTVYLQMNSLKPEDTAVYYCNIYYGGDYYYTGVKPNPWGQGTQVTVSS
notes: as for B5

How the values were obtained:
[1] = biological target: T2, Hu/NoV/GI.1/P7-587/2007/Stromstad/Sweden VLP (human norovirus GI.1); experiment: VLP ELISA
T2 construct: mature; baculovirus VLP; VP2 may be present; also called Norovirus 2007

[2] = biological target: T1, Hu/NoV/GI.1/Norwalk/1968/U.S. VLP; experiment: blockade ELISA: VLP binding to saliva Ly+
Description: (§1) For this assay saliva positive for Ly antigen collected from a secretor individual was used. Saliva was boiled (95° C.) for 10 minutes immediately after collection, centrifuged for 5 minutes at 13000×g and the supernatants stored at −20° C. until used. ELISA 96 well U bottom polyvinyl plates Dynatech (Nunc, Thermo, EEUU) were coated with 100 μl/well of a 1/400 saliva dilution in 50 μM carbonate-bicarbonate buffer, pH 9.6. The plate was incubated overnight at 37° C. in a wet atmosphere. In parallel, serial two-fold dilutions of VHH starting from 8 ug/ml were mixed with 1.5 ug/ml of NoV VLP Norwalk and MD145 and incubated for 1h at 37° C. After 6 washes and a blocking step with 5% dry milk/0.05% Tween₂₀-PBS, 50 ul of each VHH-VLP mixture was transferred to the reaction plate, in duplicate. The assay was developed using a specific polyclonal antiserum made in guinea pig (1:10,000) followed by a peroxidase labeled anti-guinea pig IgG (1:2,000) and ABTS/H₂O₂ as substrate chromogen (KPL), 100 μl per well. Absorbance at 405 nm was measured. Mean % control binding, EC50 and criteria for determination of a blockade VHH were calculated as described above.

[3] = biological target: T1, Hu/NoV/GI.1/Norwalk/1968/U.S. VLP; experiment: VLP ELISA
[4] = biological target: T1, Hu/NoV/GI.1/Norwalk/1968/U.S. VLP; experiment: blockade ELISA: VLP binding to PGM type III
Description: (§2) Pig Gastric Mucin Type III (PGM) (Sigma Chemicals) was used as a substrate for NoV VLP antibody-blockade assay as previously described. Briefly, PGM was resuspended in PBS at 5 mg/ml and coated onto 96 well U bottom polyvinyl plates Dynatech (Nunc, Thermo, USA) at 10 μg/ml in PBS for 4 hours. Plates were then blocked ON at 4° C. in 5% dry milk in 0.05% Tween₂₀-PBS. […] One hundred μl of VLPs-VHH mix were transferred to the PGM coated plates and incubated for 1 hour. Bound VLPs were detected by specific hyperimmune sera made in guinea pig, followed by anti-guinea pig IgG-HRP (KLP). ABTS/H₂O₂ was used as chromogen/substrate solution. All incubations were performed at room temperature and absorbance at 405 nm was measured. Mean % control binding, EC50 and criteria for determination of a blockade VHH were calculated as described above.

[5] = biological target: T3, Hu/NoV/GII.4/RockvilleD1/2012/U.S. VLP (human norovirus GII.4); experiment: VLP ELISA
T3 construct: mature; baculovirus VLP; VP2 may be present

[6] = biological target: T4, Hu/NoV/GII.4/MD145-12/1997/U.S. VLP (human norovirus GII.4); experiment: VLP ELISA
T4 construct: mature; baculovirus VLP; VP2 may be present

[7] = biological target: T5, Hu/NoV/GII.4/HS-191/2001/U.S. VLP (human norovirus GII.4); experiment: VLP ELISA
T5 construct: mature; baculovirus VLP; VP2 may be present

[8] = biological target: T6, Hu/NoV/GII.4/MD2004/2004/U.S. VLP (human norovirus GII.4); experiment: VLP ELISA
T6 construct: mature; baculovirus VLP; VP2 may be present; also called MD2004 VLP

[9] = biological target: T4, Hu/NoV/GII.4/MD145-12/1997/U.S. VLP; experiment: blockade ELISA: VLP binding to saliva Ly+
Description: as §1

[10] = biological target: T7, Hu/GII.6/Bethesda/2012/U.S. VLP (human norovirus GII.6); experiment: VLP ELISA
T7 construct: mature; baculovirus VLP; VP2 may be present

[11] = biological target: T8, Hu/NoV/GII.4/CHDC4871/1977/U.S. VLP (human norovirus GII.4); experiment: VLP ELISA
T8 construct: mature; baculovirus VLP; VP2 may be present

[12] = biological target: T6, Hu/NoV/GII.4/MD2004/2004/U.S. VLP; experiment: blockade ELISA: VLP binding to PGM type III
Description: as §2

[13] = biological target: T4, Hu/NoV/GII.4/MD145-12/1997/U.S. VLP; experiment: cell-based or functional assay
[14] = biological target: T6, Hu/NoV/GII.4/MD2004/2004/U.S. VLP; experiment: cell-based or functional assay
[15] = biological target: T4, Hu/NoV/GII.4/MD145-12/1997/U.S. VLP; experiment: blockade ELISA: VLP binding to synthetic HBGA H3
[16] = biological target: T2, Hu/NoV/GI.1/P7-587/2007/Stromstad/Sweden …; experiment: cell-based or functional assay
[17] = biological target: T1, Hu/NoV/GI.1/Norwalk/1968/U.S. VLP; experiment: cell-based or functional assay
[18] = biological target: T9, Hu/NoV/GII.3/CHDC4031/1988/U.S. VLP (human norovirus GII.3); experiment: VLP ELISA
T9 construct: mature; baculovirus VLP; VP2 may be present

[19] = biological target: T10, Hu/NoV/GII.2/Henryton/1971/U.S. VLP (human norovirus GII.2); experiment: VLP ELISA
T10 construct: mature; baculovirus VLP; VP2 may be present

[20] = biological target: T11, Hu/NoV/GII.1/Hawaii/1971/U.S. VLP (human norovirus GII.1); experiment: VLP ELISA
T11 construct: mature; baculovirus VLP; VP2 may be present

[21] = biological target: T12, Hu/NoV/GII.7/DC119/U.S. VLP (human norovirus GII.7); experiment: VLP ELISA
T12 construct: mature; baculovirus VLP; VP2 may be present

[22] = biological target: T13, Hu/NoV/Snow Mountain/GII.2/U.S. VLP (human norovirus GII.2); experiment: VLP ELISA
T13 construct: mature; baculovirus VLP; VP2 may be present

Row | Binder | minimum concentration of VHH able to recognize 100 ng of VLP [1] | minimum concentration of VHH able to recognize 100 ng of VLP [3] | EC50 [4] | minimum concentration of VHH able to recognize 100 ng of VLP [5] | minimum concentration of VHH able to recognize 100 ng of VLP [6] | minimum concentration of VHH able to recognize 100 ng of VLP [7] | minimum concentration of VHH able to recognize 100 ng of VLP [8] | EC50 [9] | minimum concentration of VHH able to recognize 100 ng of VLP [11] | EC50 [12] | HAI titer, 0 Rh- RBC [16] | also measured
1 | B1 | 1 ng/well | – | – | – | – | – | – | – | – | – | – | –
2 | B2 | – | 0.5 ng/well | 1.14 µg/mL | – | – | – | – | – | – | – | – | EC50 [2]: 1.72 µg/mL
3 | B3 | – | – | – | 0.25 ng/well | 8 ng/well | 0.5 ng/well | 0.5 ng/well | – | – | – | – | –
4 | B4 | – | – | – | 0.5 ng/well | 1 ng/well | 0.5 ng/well | 2 ng/well | 0.917 µg/mL | 0.5 ng/well | 2.3 µg/mL | – | minimum concentration of VHH able to recognize 100 ng of VLP [10]: 0.5 ng/well; HAI titer, B Rh+ RBC [13]: 0.19 µg/mL; HAI titer, B Rh+ RBC [14]: 0.19 µg/mL; EC50 [15]: 0.641 µg/mL
5 | B5 | 1 ng/well | – | – | – | – | – | – | – | – | – | 0.78 µg/mL | –
6 | B6 | 0.5 ng/well | 0.5 ng/well | 0.351 µg/mL | – | – | – | – | – | – | – | 0.05 µg/mL | EC50 [2]: 1.56 µg/mL; HAI titer, 0 Rh- RBC [17]: 0.78 µg/mL
7 | B7 | – | – | – | 2 ng/well | 4 ng/well | 1 ng/well | 2 ng/well | 1.3 µg/mL | 1 ng/well | 0.583 µg/mL | – | minimum concentration of VHH able to recognize 100 ng of VLP [18]: 0.5 ng/well; minimum concentration of VHH able to recognize 100 ng of VLP [19]: 2 ng/well; minimum concentration of VHH able to recognize 100 ng of VLP [10]: 2 ng/well; minimum concentration of VHH able to recognize 100 ng of VLP [20]: 1 ng/well; minimum concentration of VHH able to recognize 100 ng of VLP [21]: 1 ng/well; minimum concentration of VHH able to recognize 100 ng of VLP [22]: 2 ng/well; HAI titer, B Rh+ RBC [13]: 0.39 µg/mL; HAI titer, B Rh+ RBC [14]: 0.39 µg/mL
8 | B8 | – | – | – | – | – | – | 0.5 ng/well | – | – | 0.767 µg/mL | – | binding result [3]: no binding
9 | B9 | – | – | – | 0.25 ng/well | 0.5 ng/well | 1 ng/well | 0.5 ng/well | 2.01 µg/mL | 0.25 ng/well | 0.341 µg/mL | – | EC50 [15]: 0.85 µg/mL
10 | B10 | 1 ng/well | 1 ng/well | 2.59 µg/mL | – | – | – | – | – | – | – | 0.8 µg/mL | –
